From US20150322128A1 (Sanofi, published 2015)
Like-named read-outs stand apart in the source and are kept apart here. Numbered stars: 1 amine (or outer) side, 2 acyl side, 3 side chain; on linkers, the order of the positions; unused ones are H or OH. Square brackets hold non-standard residues; d marks the D form. Side chains are listed from the residue outwards. Ends that are not written are not given here. * marks the point of attachment. γGlu = O=C(O)[C@H](CCC(=O)[*:2])N[*:1]; Palmitoyl = CCCCCCCCCCCCCCCC(=O)*; Aib = CC(C)(N)C(=O)O

T1: human GIP receptor (human, UniProt P48546 22-466)
T1 sequence (looked up): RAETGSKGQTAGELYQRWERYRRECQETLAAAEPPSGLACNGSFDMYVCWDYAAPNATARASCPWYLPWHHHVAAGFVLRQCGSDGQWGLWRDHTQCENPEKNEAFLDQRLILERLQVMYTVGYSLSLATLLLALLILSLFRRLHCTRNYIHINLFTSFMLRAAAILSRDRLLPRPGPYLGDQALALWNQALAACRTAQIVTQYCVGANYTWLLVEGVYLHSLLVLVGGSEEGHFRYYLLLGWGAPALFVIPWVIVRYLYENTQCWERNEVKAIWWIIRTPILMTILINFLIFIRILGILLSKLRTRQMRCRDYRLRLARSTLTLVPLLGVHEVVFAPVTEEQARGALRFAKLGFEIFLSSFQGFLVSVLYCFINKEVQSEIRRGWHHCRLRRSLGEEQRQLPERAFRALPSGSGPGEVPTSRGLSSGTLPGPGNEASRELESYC


Legend:
Assay in all cases: cell-based or functional assay
human GIP receptor [1] = molecular target: T1, human GIP receptor
human GLP-1 receptor [2] = molecular target: T2, human GLP-1 receptor (human, UniProt P43220 24-463)
human glucagon receptor [3] = molecular target: T3, human glucagon receptor (human, UniProt P47871 26-477)
human GIP receptor [4] = molecular target: T1, human GIP receptor; remark: listed apart in the source
human GLP-1 receptor [5] = molecular target: T2, human GLP-1 receptor; remark: listed apart in the source
human glucagon receptor [6] = molecular target: T3, human glucagon receptor; remark: listed apart in the source

T3 sequence (P47871 26-477): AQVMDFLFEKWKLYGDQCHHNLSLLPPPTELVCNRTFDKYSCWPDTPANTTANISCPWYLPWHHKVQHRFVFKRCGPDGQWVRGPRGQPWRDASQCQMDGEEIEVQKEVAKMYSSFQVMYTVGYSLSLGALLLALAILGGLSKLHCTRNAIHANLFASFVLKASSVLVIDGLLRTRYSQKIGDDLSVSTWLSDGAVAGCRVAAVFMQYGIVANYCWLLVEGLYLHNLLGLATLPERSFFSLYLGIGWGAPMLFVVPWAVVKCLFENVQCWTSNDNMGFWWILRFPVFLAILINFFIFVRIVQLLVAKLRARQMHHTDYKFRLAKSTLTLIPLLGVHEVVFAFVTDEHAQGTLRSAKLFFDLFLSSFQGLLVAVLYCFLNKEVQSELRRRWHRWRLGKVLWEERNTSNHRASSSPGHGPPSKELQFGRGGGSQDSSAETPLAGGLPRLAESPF

Binder	EC50 hGIP-1 (human GIP receptor [1])	EC50 hGLP-1R (human GLP-1 receptor [2])	EC50 hGlucagon-R (human glucagon receptor [3])	EC50 hGIP-R (human GIP receptor [4])	EC50 hGLP-1R (human GLP-1 receptor [5])	EC50 hGlucagon-R (human glucagon receptor [6])
H-HSQGTFTSDLSKQK([γGlu-γGlu-Palmitoyl])DEEAARLFIEWLKAGGPSSGAPPPS-NH2 [SEQ ID NO: 33]	70.8 pM	1 pM	1.4 pM	–	–	–
H[dS]HGTFTSDLSKQK([γGlu-γGlu-Palmitoyl])EEEAARLFIEWL[Aib]K[dA]GPSSGAPPPS-NH2 (N-terminus assumed; SMILES CCCCCCCCCCCCCCCC(=O)N[C@@H](CCC(=O)N[C@@H](CCC(=O)NCCCC[C@H](NC(=O)[C@H](CCC(N)=O)NC(=O)[C@H](CCCCN)NC(=O)[C@H](CO)NC(=O)[C@H](CC(C)C)NC(=O)[C@H](CC(=O)O)NC(=O)[C@H](CO)NC(=O)[C@@H](NC(=O)[C@H](Cc1ccccc1)NC(=O)[C@@H](NC(=O)CNC(=O)[C@H](Cc1c[nH]cn1)NC(=O)[C@@H](CO)NC(=O)[C@@H](N)Cc1c[nH]cn1)[C@@H](C)O)[C@@H](C)O)C(=O)N[C@@H](CCC(=O)O)C(=O)N[C@@H](CCC(=O)O)C(=O)N[C@@H](CCC(=O)O)C(=O)N[C@@H](C)C(=O)N[C@@H](C)C(=O)N[C@@H](CCCNC(=N)N)C(=O)N[C@@H](CC(C)C)C(=O)N[C@@H](Cc1ccccc1)C(=O)N[C@H](C(=O)N[C@@H](CCC(=O)O)C(=O)N[C@@H](Cc1c[nH]c2ccccc12)C(=O)N[C@@H](CC(C)C)C(=O)NC(C)(C)C(=O)N[C@@H](CCCCN)C(=O)N[C@H](C)C(=O)NCC(=O)N1CCC[C@H]1C(=O)N[C@@H](CO)C(=O)N[C@@H](CO)C(=O)NCC(=O)N[C@@H](C)C(=O)N1CCC[C@H]1C(=O)N1CCC[C@H]1C(=O)N1CCC[C@H]1C(=O)N[C@@H](CO)C(N)=O)[C@@H](C)CC)C(=O)O)C(=O)O) [SEQ ID NO: 27]	–	–	–	3220 pM	2.1 pM	55.4 pM
HXHGTFTSDLSKQKDEEAARLFIEWLKAGGPSSGAPPPS (D-Ser at 2; Lys 14 side chain K(γE-γE-x53) = (S)-4-Carboxy-4-((S)-4-carboxy-4-hexadecanoylamino-butyrylamino)-butyryl-; C-terminal amide) [SEQ ID NO: 29]	112 pM	0.9 pM	2.6 pM	–	–	–
HXHGTFTSDLSKQKEEEAARLFIEWLKAGGPSSGAPPPS (D-Ser at 2; Lys 14 side chain K(γE-γE-x53) = (S)-4-Carboxy-4-((S)-4-carboxy-4-hexadecanoylamino-butyrylamino)-butyryl-; C-terminal amide) [SEQ ID NO: 30]	77.8 pM	0.8 pM	5.1 pM	–	–	–
H[dS]QGTFTSDLSKQK([γGlu-γGlu-Palmitoyl])EEEAARLFIEWLKAGGPSSGAPPPS-NH2 (N-terminus assumed; SMILES CCCCCCCCCCCCCCCC(=O)N[C@@H](CCC(=O)N[C@@H](CCC(=O)NCCCC[C@H](NC(=O)[C@H](CCC(N)=O)NC(=O)[C@H](CCCCN)NC(=O)[C@H](CO)NC(=O)[C@H](CC(C)C)NC(=O)[C@H](CC(=O)O)NC(=O)[C@H](CO)NC(=O)[C@@H](NC(=O)[C@H](Cc1ccccc1)NC(=O)[C@@H](NC(=O)CNC(=O)[C@H](CCC(N)=O)NC(=O)[C@@H](CO)NC(=O)[C@@H](N)Cc1c[nH]cn1)[C@@H](C)O)[C@@H](C)O)C(=O)N[C@@H](CCC(=O)O)C(=O)N[C@@H](CCC(=O)O)C(=O)N[C@@H](CCC(=O)O)C(=O)N[C@@H](C)C(=O)N[C@@H](C)C(=O)N[C@@H](CCCNC(=N)N)C(=O)N[C@@H](CC(C)C)C(=O)N[C@@H](Cc1ccccc1)C(=O)N[C@H](C(=O)N[C@@H](CCC(=O)O)C(=O)N[C@@H](Cc1c[nH]c2ccccc12)C(=O)N[C@@H](CC(C)C)C(=O)N[C@@H](CCCCN)C(=O)N[C@@H](C)C(=O)NCC(=O)NCC(=O)N1CCC[C@H]1C(=O)N[C@@H](CO)C(=O)N[C@@H](CO)C(=O)NCC(=O)N[C@@H](C)C(=O)N1CCC[C@H]1C(=O)N1CCC[C@H]1C(=O)N1CCC[C@H]1C(=O)N[C@@H](CO)C(N)=O)[C@@H](C)CC)C(=O)O)C(=O)O) [SEQ ID NO: 31]	345 pM	1.3 pM	7.4 pM	–	–	–
